The target in test [1] is GAL4 BD/TRAF-2 fusion (pGBT9/TRAF-2) (UniProt P04386 1-147; Q12933 1-501, limits assumed). The test can be described thus: yeast two-hybrid (β-gal, growth without His).
In test [2] the target is GAL4 BD/TRAF-6 fusion (pGBT9/TRAF-6) (UniProt P04386 1-147; Q9Y4K3 1-522, limits assumed). The test can be described thus: yeast two-hybrid (β-gal, growth without His).
In test [3] the target is GAL4 BD/TRAF-5 fusion (pGBT9/TRAF-5) (UniProt P04386 1-147; O00463 1-557, limits assumed). Nature of the test: yeast two-hybrid (β-gal, growth without His).
Test [4] has as its target GAL4 BD/TRAF-4 fusion (pGBT9/TRAF-4) (UniProt P04386 1-147; Q9BUZ4 1-470, limits assumed). The test can be described thus: yeast two-hybrid (β-gal, growth without His).
Test [5] has as its target T1, GAL4 DNA-binding domain (BD)/full-length TRAF-3 fusion construct (pGBT9/TRAF-3) (human, UniProt P04386 1-147; Q13114 1-568).
T1 construct: Yeast two-hybrid fusion expressed in yeast Y190; BD is put first as in the vector; also called BD/TRAF-3; bait construct
Nature of the test: yeast two-hybrid.

For test [6], the target named is T2, HA-tagged β-galactosidase (pCGN/LacZ) (UniProt P00722 1-1024 = β-galactosidase).
T2 construct: Specificity control, over-expressed in 293T cells; also called HA-LacZ; RA-LacZ; not shown: N-terminal hemagglutinin (HA) tag of vector pCGN
T2 sequence (P00722 whole entry): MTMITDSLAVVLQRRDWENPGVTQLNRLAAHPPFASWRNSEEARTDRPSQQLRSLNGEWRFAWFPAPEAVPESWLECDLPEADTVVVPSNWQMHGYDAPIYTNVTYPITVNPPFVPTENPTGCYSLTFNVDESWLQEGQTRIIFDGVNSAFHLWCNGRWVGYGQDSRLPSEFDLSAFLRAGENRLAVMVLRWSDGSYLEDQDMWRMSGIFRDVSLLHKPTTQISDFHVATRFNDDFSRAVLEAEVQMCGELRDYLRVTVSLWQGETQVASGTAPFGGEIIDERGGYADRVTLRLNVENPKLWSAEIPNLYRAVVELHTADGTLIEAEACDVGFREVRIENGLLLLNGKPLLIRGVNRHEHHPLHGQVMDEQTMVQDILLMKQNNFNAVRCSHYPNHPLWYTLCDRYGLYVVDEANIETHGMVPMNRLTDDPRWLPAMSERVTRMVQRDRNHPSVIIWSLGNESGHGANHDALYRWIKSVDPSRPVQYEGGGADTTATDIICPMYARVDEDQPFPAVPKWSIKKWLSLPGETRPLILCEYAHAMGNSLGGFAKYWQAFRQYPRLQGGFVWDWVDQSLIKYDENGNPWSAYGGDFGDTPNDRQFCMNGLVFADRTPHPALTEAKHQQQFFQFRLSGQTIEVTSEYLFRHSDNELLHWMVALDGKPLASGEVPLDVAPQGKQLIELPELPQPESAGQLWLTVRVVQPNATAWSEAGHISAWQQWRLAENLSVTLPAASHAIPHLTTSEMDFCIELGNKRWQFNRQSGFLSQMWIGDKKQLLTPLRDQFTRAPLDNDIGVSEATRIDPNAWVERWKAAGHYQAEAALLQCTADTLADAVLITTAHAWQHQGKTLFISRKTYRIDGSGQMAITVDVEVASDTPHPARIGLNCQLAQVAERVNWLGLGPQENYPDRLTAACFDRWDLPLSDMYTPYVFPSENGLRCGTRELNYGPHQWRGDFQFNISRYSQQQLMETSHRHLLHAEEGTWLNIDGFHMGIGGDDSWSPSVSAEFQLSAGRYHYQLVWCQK
Nature of the test: co-immunoprecipitation from 293T lysates, anti-HA IP, anti-X-press blot. Here is the method:
Samples were separated by 10% SDS PAGE and transferred to Immobilon-P PVDF membranes (Millipore Corporation, Bedford, Mass.). Membranes were washed with 1× Tris Buffered Saline (TBS) containing 50 mM Tris pH 7.5 (Fisher Scientific) and 150 mM sodium chloride (Fisher Scientific), and then blocked in 1% Blocking Reagent (Roche Molecular Biochemicals) dissolved in 1×TBS.
(§1) Membranes were probed with anti-Xpress, diluted 1:5000 in 0.5% Blocking Reagent, or anti-HA (12CA5) at 0.4 μg/ml (Roche Molecular Biochemicals) in 0.5% Blocking Reagent. Membranes were incubated for 1 hour, then washed twice with TBS containing 0.1% Tween-20 (Sigma Chemical Co.) (1× TBST) and twice with 0.5% Blocking Reagent. Membranes were incubated with anti-mouse IgG-Peroxidase (Roche Molecular Biochemicals) at 1:2500 in 0.5% Blocking Reagent for 60 minutes at room temperature, then washed 4 times in 1× TBST. Proteins were detected with the BM Chemiluminescence Blotting Substrate (POD) (Roche Molecular Biochemicals). Following detection, membranes were stripped of antibodies by incubation with stripping solution containing 62.5 mM Tris pH 6.7, 2% SDS, and 50 mM 2-mercaptoethanol (Fisher Scientific) for 30 minutes at 50° C. The membranes were rinsed with distilled water and then with 1×TBS. The stripped membranes were blocked and reprobed with antibodies as described above.

For test [7], the target named is T3, His-tagged TRAF-2 (pEBVHis/TRAF-2) (UniProt Q12933 1-501).
T3 construct: Specificity control, over-expressed in 293T cells
T3 sequence (looked up): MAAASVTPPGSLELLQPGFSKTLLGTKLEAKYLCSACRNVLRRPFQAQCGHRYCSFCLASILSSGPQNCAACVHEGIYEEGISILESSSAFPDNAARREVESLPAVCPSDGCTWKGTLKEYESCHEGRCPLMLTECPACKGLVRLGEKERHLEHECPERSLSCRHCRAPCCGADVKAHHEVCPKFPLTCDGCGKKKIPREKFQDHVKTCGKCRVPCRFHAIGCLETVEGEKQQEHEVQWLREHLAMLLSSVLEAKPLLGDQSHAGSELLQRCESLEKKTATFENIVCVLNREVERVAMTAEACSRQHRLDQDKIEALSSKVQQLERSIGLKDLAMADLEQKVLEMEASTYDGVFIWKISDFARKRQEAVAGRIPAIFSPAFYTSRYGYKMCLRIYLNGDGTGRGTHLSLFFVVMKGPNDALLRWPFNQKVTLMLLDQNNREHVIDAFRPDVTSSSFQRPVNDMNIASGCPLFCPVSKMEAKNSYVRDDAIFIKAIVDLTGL
Nature of the test: co-immunoprecipitation from 293T lysates, anti-X-press IP, anti-HA blot. Here is the method: Membranes were washed with 1× Tris Buffered Saline (TBS) containing 50 mM Tris pH 7.5 (Fisher Scientific) and 150 mM sodium chloride (Fisher Scientific), and then blocked in 1% Blocking Reagent (Roche Molecular Biochemicals) dissolved in 1×TBS.
as §1

The target of test [8] is T4, GAL4 BD fusion of TRAF-3 aa 110-265 (Zn fingers only), in pGBT9 (human, UniProt P04386 1-147; Q13114 110-265).
T4 construct: The range is printed without its hyphen
The test can be described thus: yeast two-hybrid.

Test [9] deals with GAL4 BD fusion of TRAF-3 aa 267-343 (coiled-coil domain only), in pGBT9 (human, UniProt P04386 1-147; Q13114 267-343). The test can be described thus: yeast two-hybrid.

The text below walks through data of US20060035823A1 (published 2006).

B1: GAL4 AD fusion of p62 nucleoporin aa 270-522 (pACT/p62(270-522)) (other, UniProt P37198 270-522, looked up, not shown: large carriers)
chain: TTSTAATATATTTSSSSTTGFALNLKPLAPAGIPSNTAAAVTAPPGPGAAAGAAASSAMTYAQLESLINKWSLELEDQERHFLQQATQVNAWDRTLIENGEKITSLHREVEKVKLDQKRLDQELDFILSQQKELEDLLSPLEELVKEQSGTIYLQHADEEREKTYKLAENIDAQLKRMAQDLKDIIEHLNTSGAPADTSDPLQQICKILNAHMDSLQWIDQNSALLQRKVEEVTKVCEGRRKEQERSFRITFD
Take B1: the binding result in [1], in [2], in [3] and in [4] was “no binding” throughout.

B2: GAL4 AD fusion of p62 nucleoporin aa 302-391 (deletion mutant in pGAD424) (other, not shown: large carriers; small tags and cut ends)
chain: IPSNTAAAVTAPPGPGAAAGAAASSAMTYAQLESLINKWSLELEDQERHFLQQATQVNAWDRTLIENGEKITSLHREVEKVKLDQKRLDQ
Take B2: the binding result in [5] is recorded as “no binding”.

B3: His-tagged TRAF-3 (pEBVHis/TRAF-3), amino-terminal poly-histidine tag and X-press epitope (other, human, UniProt Q13114 1-568, looked up, not shown: small tags and cut ends)
chain: MESSKKMDSPGALQTNPPLKLHTDRSAGTPVFVPEQGGYKEKFVKTVEDKYKCEKCHLVLCSPKQTECGHRFCESCMAALLSSSSPKCTACQESIVKDKVFKDNCCKREILALQIYCRNESRGCAEQLMLGHLLVHLKNDCHFEELPCVRPDCKEKVLRKDLRDHVEKACKYREATCSHCKSQVPMIALQKHEDTDCPCVVVSCPHKCSVQTLLRSELSAHLSECVNAPSTCSFKRYGCVFQGTNQQIKAHEASSAVQHVNLLKEWSNSLEKKVSLLQNESVEKNKSIQSLHNQICSFEIEIERQKEMLRNNESKILHLQRVIDSQAEKLKELDKEIRPFRQNWEEADSMKSSVESLQNRVTELESVDKSAGQVARNTGLLESQLSRHDQMLSVHDIRLADMDLRFQVLETASYNGVLIWKIRDYKRRKQEAVMGKTLSLYSQPFYTGYFGYKMCARVYLNGDGMGKGTHLSLFFVIMRGEYDALLPWPFKQKVTLMLMDQGSSRRHLGDAFKPDPNSSSFKKPTGEMNIASGCPVFVAQTVLENGTYIKDDTIFIKVIVDTSDLPDP
notes: Over-expressed in 293T cells; tested in cell lysates
Turning to B3, the binding result in [6] is “no binding”.

B4: HA-tagged p62(336-522) (pCGN/p62(336-522)), N-terminal hemagglutinin tag (other)
chain: LINKWSLELEDQERHFLQQATQVNAWDRTLIENGEKITSLHREVEKVKLDQKRLDQELDFILSQQKELEDLLSPLEELVKEQRATIYLQHADEERQKTYKLAENIDAQLKRMAQDLKDIIEHLNTSGAPADTSDPLQQICKILNAHMDSLQWIDQNSALLQRKVEEVTKVCVGRRKEQERSFRITFD
notes: not shown: N-terminal hemagglutinin (HA) tag of vector pCGN
For the molecule B4, the binding result in test [7] is “no binding”.

B5: GAL4 AD fusion of p62 nucleoporin aa 336-522 (pACT/p62(336-522)) (other, not shown: large carriers)
chain: B4 chain
For B5, the binding result in test [8] and in test [9] was “no binding” each time.
